Measured values reported in US20020065240A1.

Target: VEGF mitogenic receptors
Experiment: cell-based or functional assay

half-maximal activity, HUVEC mitogenesis ([3H]thymidine incorporation): 17 to 19 ng/mL
B1: recombinant human VEGF145, P15692 207-395 (ligand)
chain: APMAEGGGQNHHEVVKFMDVYQRSYCHPIETLVDIFQEYPDEIEYIFKPSCVPLMRCGGCCNDEGLECVPTEESNITMQIMRIKPHQGQHIGEMSFLQHNKCECRPKKDRARQEKKSVRGKGKGQKRKRKKSRYKSWSVCDKPRR
